Reference: the supplement of paper PMC9732359
± gives the uncertainty stated by the source.

Test: protein stability index of a GFP-peptide fusion (yeast GPS) (PSI 1-4); higher = more stable; sorted into four equal gates, so the index is relative within each strain
Procedure, shortened: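 Each library plasmid carries Cherry plus GFP with a tiled 17-residue yeast protein peptide fused downstream, and the pooled library was carried in yeast. Mid-log cultures in leucine-free medium were sorted into four equal gates by GFP/Cherry ratio. Reads from Illumina sequencing of PCR-amplified plasmids from each gate were assigned to strains by barcodes. Per peptide, the protein stability index was computed as the summed products of gate read frequency and gate number.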

KLNKVDKNELQQMIITR [SIR3]
protein stability index (doa10∆): 3.12 ± 0.074 | protein stability index (pdr5∆): 3.22 ± 0.07 | protein stability index (san1∆): 3.28 ± 0.039 | protein stability index (ubr1∆): 3.23 ± 0.043

KLPLSVINVSAQRDRRY [RPS17A]
protein stability index (doa10∆): 1.8 ± 0.064 | protein stability index (pdr5∆): 1.77 ± 0.058 | protein stability index (san1∆): 1.43 ± 0.23 | protein stability index (ubr1∆): 1.66 ± 0.15

KLREKVNDVELAFKKNE [MTW1]
protein stability index (doa10∆): 3.1 ± 0.13 | protein stability index (pdr5∆): 3.02 ± 0.13 | protein stability index (san1∆): 3 ± 0.15 | protein stability index (ubr1∆): 3.06 ± 0.21

KLRETLVKIDDLSANQR [SMC1]
protein stability index (doa10∆): 3.11 ± 0.11 | protein stability index (pdr5∆): 3.29 ± 0.12 | protein stability index (san1∆): 3.07 ± 0.11 | protein stability index (ubr1∆): 3.09 ± 0.077

KLSESLDTRKELWRKEQ [SMC3]
protein stability index (doa10∆): 1.29 ± 0.077 | protein stability index (pdr5∆): 1.75 ± 0.1 | protein stability index (san1∆): 3.19 ± 0.19 | protein stability index (ubr1∆): 1.82 ± 0.12

KLTQKLVTAGVAAAGIT [CYT1]
protein stability index (doa10∆): 2.1 ± 0.083 | protein stability index (pdr5∆): 2.21 ± 0.086 | protein stability index (san1∆): 2.56 ± 0.065 | protein stability index (ubr1∆): 2.11 ± 0.052

KLVLAARIIAAIPNPED [RPS0A]
protein stability index (doa10∆): 1.71 ± 0.074 | protein stability index (pdr5∆): 2.11 ± 0.11 | protein stability index (san1∆): 2.31 ± 0.099 | protein stability index (ubr1∆): 2.5 ± 0.14

KLYDKTENDIKALQSIG [RPT4]
protein stability index (doa10∆): 2.65 ± 0.18 | protein stability index (pdr5∆): 2.62 ± 0.2 | protein stability index (san1∆): 1.87 ± 0.22 | protein stability index (ubr1∆): 2.4 ± 0.22

KMDMICRNINRKHRNAQ [DIS3]
protein stability index (doa10∆): 2.2 ± 0.074 | protein stability index (pdr5∆): 2.5 ± 0.11 | protein stability index (san1∆): 2.37 ± 0.086 | protein stability index (ubr1∆): 3.12 ± 0.12

KMEKKKSSSLSLESFMK [SNM1]
protein stability index (doa10∆): 3.06 ± 0.1 | protein stability index (pdr5∆): 3.32 ± 0.12 | protein stability index (san1∆): 2.93 ± 0.14 | protein stability index (ubr1∆): 2.97 ± 0.084

KMPGGFTITVARKYLQT [FAS2]
protein stability index (doa10∆): 1.24 ± 0.039 | protein stability index (pdr5∆): 1.47 ± 0.065 | protein stability index (san1∆): 1.21 ± 0.084 | protein stability index (ubr1∆): 1.27 ± 0.052

KNATDLQQAKLRESEIS [SMC3]
protein stability index (doa10∆): 3.17 ± 0.073 | protein stability index (pdr5∆): 3.15 ± 0.071 | protein stability index (san1∆): 3.11 ± 0.085 | protein stability index (ubr1∆): 2.97 ± 0.068

KNDEVLGLLLPIAASTD [RPN1]
protein stability index (doa10∆): 2.02 ± 0.055 | protein stability index (pdr5∆): 2.3 ± 0.062 | protein stability index (san1∆): 2.47 ± 0.063 | protein stability index (ubr1∆): 2.6 ± 0.071

KNDTHYLLPDDFHFSTD [BRN1]
protein stability index (doa10∆): 2.81 ± 0.072 | protein stability index (pdr5∆): 3.19 ± 0.074 | protein stability index (san1∆): 2.9 ± 0.055 | protein stability index (ubr1∆): 2.95 ± 0.065

KNDTKILVLALEDLKDV [PRP8]
protein stability index (doa10∆): 1.6 ± 0.1 | protein stability index (pdr5∆): 1.96 ± 0.099 | protein stability index (san1∆): 1.55 ± 0.11 | protein stability index (ubr1∆): 1.73 ± 0.055

KNEEAEIEVDEMEVDAE [RPN1]
protein stability index (doa10∆): 3.4 ± 0.14 | protein stability index (pdr5∆): 3.51 ± 0.11 | protein stability index (san1∆): 3.19 ± 0.12 | protein stability index (ubr1∆): 3.62 ± 0.1

KNEETPQNEKPPAYALL [RPC25]
protein stability index (doa10∆): 2.27 ± 0.23 | protein stability index (san1∆): 2.05 ± 0.14 | protein stability index (ubr1∆): 2.74 ± 0.24

KNFENGPKKNVFYAPNV [RPC34]
protein stability index (doa10∆): 2.99 ± 0.068 | protein stability index (pdr5∆): 2.94 ± 0.071 | protein stability index (san1∆): 2.66 ± 0.084 | protein stability index (ubr1∆): 3.14 ± 0.063

KNIAQCLSDYTKKISNF [YJL039C/NUP192]
protein stability index (doa10∆): 1.79 ± 0.055 | protein stability index (pdr5∆): 2.22 ± 0.055 | protein stability index (san1∆): 2.02 ± 0.068 | protein stability index (ubr1∆): 1.49 ± 0.036

KNISSQLDSKLMVFNDD [YGR119C/NUP57]
protein stability index (doa10∆): 2.12 ± 0.041 | protein stability index (pdr5∆): 2.54 ± 0.052 | protein stability index (san1∆): 2.24 ± 0.056 | protein stability index (ubr1∆): 2.08 ± 0.029

KNLNPASSSPSSTDFST [ECM29]
protein stability index (doa10∆): 3.11 ± 0.049 | protein stability index (pdr5∆): 2.81 ± 0.045 | protein stability index (san1∆): 2.97 ± 0.056 | protein stability index (ubr1∆): 2.91 ± 0.032

KNMFEKKASKVTVDADI [ISW2]
protein stability index (doa10∆): 2.44 ± 0.063 | protein stability index (pdr5∆): 2.87 ± 0.059 | protein stability index (san1∆): 2.83 ± 0.055 | protein stability index (ubr1∆): 2.77 ± 0.054

KNSSQLLNEWSHNVDEL [RPN5]
protein stability index (doa10∆): 2.75 ± 0.057 | protein stability index (pdr5∆): 2.81 ± 0.05 | protein stability index (san1∆): 2.9 ± 0.045 | protein stability index (ubr1∆): 2.64 ± 0.049

KNSSVSSLMNGLGYVFE [SRB5]
protein stability index (doa10∆): 3.06 ± 0.14 | protein stability index (pdr5∆): 1.72 ± 0.073 | protein stability index (san1∆): 2.4 ± 0.1 | protein stability index (ubr1∆): 2.51 ± 0.056

KPHGLAARVDIGQIIFS [RPL10]
protein stability index (doa10∆): 2.31 ± 0.058 | protein stability index (pdr5∆): 2.13 ± 0.037 | protein stability index (san1∆): 1.72 ± 0.082 | protein stability index (ubr1∆): 2.15 ± 0.036

KPKNTKENLSKSSWRQE [SIR4]
protein stability index (doa10∆): 1.35 ± 0.076 | protein stability index (pdr5∆): 1.21 ± 0.049 | protein stability index (san1∆): 1.21 ± 0.1 | protein stability index (ubr1∆): 1.5 ± 0.049

KPLGLDRYGNRYFWLDH [ITC1]
protein stability index (doa10∆): 2.77 ± 0.11 | protein stability index (pdr5∆): 3.02 ± 0.13 | protein stability index (san1∆): 2.85 ± 0.056 | protein stability index (ubr1∆): 2.74 ± 0.086

KPLGTTRAMEYLKFREL [RPB2]
protein stability index (doa10∆): 2.49 ± 0.065 | protein stability index (pdr5∆): 2.86 ± 0.077 | protein stability index (san1∆): 3.13 ± 0.068 | protein stability index (ubr1∆): 2.9 ± 0.056

KPNDLVGVNKDSYLILD [RPT5]
protein stability index (doa10∆): 3.05 ± 0.17 | protein stability index (pdr5∆): 3.4 ± 0.19 | protein stability index (san1∆): 3.35 ± 0.082 | protein stability index (ubr1∆): 3.49 ± 0.14

KPSLVDVHLLESKVYHK [RPN6]
protein stability index (doa10∆): 1.74 ± 0.045 | protein stability index (pdr5∆): 1.9 ± 0.053 | protein stability index (san1∆): 1.77 ± 0.086 | protein stability index (ubr1∆): 2.05 ± 0.061

KPTEVNDSENNSSEEDK [ITC1]
protein stability index (doa10∆): 2.82 ± 0.058 | protein stability index (pdr5∆): 2.74 ± 0.082 | protein stability index (san1∆): 3.17 ± 0.052 | protein stability index (ubr1∆): 3.3 ± 0.067

KPVMEVTSSFFYRGNYT [FAS1]
protein stability index (doa10∆): 2.21 ± 0.065 | protein stability index (pdr5∆): 2.11 ± 0.065 | protein stability index (san1∆): 1.91 ± 0.12 | protein stability index (ubr1∆): 2.1 ± 0.081

KPYSGKLLKVCLTMFED [ECM29]
protein stability index (doa10∆): 2.18 ± 0.056 | protein stability index (pdr5∆): 2.17 ± 0.058 | protein stability index (san1∆): 2.67 ± 0.045 | protein stability index (ubr1∆): 2.36 ± 0.058

KQDKTLQKVENQTIKEA [YIL149C/MLP2]
protein stability index (doa10∆): 3.22 ± 0.072 | protein stability index (pdr5∆): 3.15 ± 0.07 | protein stability index (san1∆): 3.15 ± 0.071 | protein stability index (ubr1∆): 3.17 ± 0.062

KQGFVIYRVRVRRGNRK [RPL15A]
protein stability index (doa10∆): 1.17 ± 0.13 | protein stability index (pdr5∆): 1.96 ± 0.11 | protein stability index (san1∆): 1.29 ± 0.26 | protein stability index (ubr1∆): 2.26 ± 0.089

KQIDIPNFNVEIMQQKF [ECM29]
protein stability index (doa10∆): 2.4 ± 0.25 | protein stability index (pdr5∆): 2.5 ± 0.16 | protein stability index (san1∆): 3.03 ± 0.11 | protein stability index (ubr1∆): 3.11 ± 0.097

KQLNSLRRSGQIANDPS [SMD1]
protein stability index (doa10∆): 2.56 ± 0.09 | protein stability index (pdr5∆): 3.02 ± 0.14 | protein stability index (ubr1∆): 2.91 ± 0.07

KQNNKDFRTRYIDIRTN [MTW1]
protein stability index (doa10∆): 2.69 ± 0.07 | protein stability index (pdr5∆): 2.65 ± 0.072 | protein stability index (san1∆): 2.31 ± 0.1 | protein stability index (ubr1∆): 2.62 ± 0.077

KQNPGLMQNMMNMFGGG [SRP54]
protein stability index (doa10∆): 2.05 ± 0.086 | protein stability index (pdr5∆): 2.36 ± 0.049 | protein stability index (san1∆): 2.37 ± 0.088 | protein stability index (ubr1∆): 1.8 ± 0.042

KQRLDLARQVKLLLLNT [YIL149C/MLP2]
protein stability index (doa10∆): 2.56 ± 0.059 | protein stability index (pdr5∆): 2.15 ± 0.058 | protein stability index (san1∆): 1.98 ± 0.092 | protein stability index (ubr1∆): 1.88 ± 0.034

KQSGFGGQTKPVFHKKA [RPL42A]
protein stability index (doa10∆): 2.74 ± 0.04 | protein stability index (pdr5∆): 3.14 ± 0.053 | protein stability index (san1∆): 2.89 ± 0.043 | protein stability index (ubr1∆): 3.045 ± 0.029

KQVQDFEENDHPNRVLE [COR1]
protein stability index (doa10∆): 3.1 ± 0.074 | protein stability index (pdr5∆): 3.29 ± 0.1 | protein stability index (san1∆): 3.19 ± 0.056 | protein stability index (ubr1∆): 2.9 ± 0.065

KREESESAAVYNGRGAR [SNF2]
protein stability index (doa10∆): 3.09 ± 0.17 | protein stability index (pdr5∆): 3.02 ± 0.091 | protein stability index (san1∆): 3.35 ± 0.057 | protein stability index (ubr1∆): 3.49 ± 0.085

KRFNIGADPNYRTYSER [RPR2]
protein stability index (doa10∆): 3.08 ± 0.15 | protein stability index (pdr5∆): 3.4 ± 0.14 | protein stability index (san1∆): 2.89 ± 0.28 | protein stability index (ubr1∆): 3.35 ± 0.11

KRKKEANEEPNTENVES [ITC1]
protein stability index (doa10∆): 3.1 ± 0.062 | protein stability index (pdr5∆): 2.74 ± 0.046 | protein stability index (san1∆): 2.78 ± 0.07 | protein stability index (ubr1∆): 2.65 ± 0.034

KRKVLELKKKRKIKRLE [SRP72]
protein stability index (doa10∆): 3.24 ± 0.077 | protein stability index (pdr5∆): 3.2 ± 0.095 | protein stability index (san1∆): 3.38 ± 0.1 | protein stability index (ubr1∆): 3.29 ± 0.058

KRLNGKRKYLDIPIDEM [SSN2]
protein stability index (doa10∆): 3.19 ± 0.13 | protein stability index (pdr5∆): 2.97 ± 0.14 | protein stability index (san1∆): 3.23 ± 0.078 | protein stability index (ubr1∆): 3.14 ± 0.17

KRLTEDERIEKELNTER [CDC53]
protein stability index (pdr5∆): 2.89 ± 0.16 | protein stability index (san1∆): 2.33 ± 0.1 | protein stability index (ubr1∆): 2.31 ± 0.12

KRPIESGTSSDPDTKKV [YIL149C/MLP2]
protein stability index (doa10∆): 3.35 ± 0.079 | protein stability index (pdr5∆): 3.2 ± 0.053 | protein stability index (san1∆): 3.2 ± 0.062 | protein stability index (ubr1∆): 3.29 ± 0.072

KRVTKVKRLLFTIRGFK [MTW1]
protein stability index (doa10∆): 2.34 ± 0.057 | protein stability index (pdr5∆): 2.52 ± 0.043 | protein stability index (san1∆): 2.14 ± 0.057 | protein stability index (ubr1∆): 2.54 ± 0.042
